Data as given in patent publication US20120270271A1 (University of Washington, published 2012).

Molecular target: T1, Tse2 (type VI secretion exported protein 2) with glycogen synthase kinase (GSK) tag (Pseudomonas aeruginosa PAO1, UniProt Q9I0E0 1-158)
T1 construct: Toxin as detected in the co-immunoprecipitation in P. aeruginosa lysate; it is placed last here only by default; also called PA2702; not shown: GSK tag used for detection
T1 sequence: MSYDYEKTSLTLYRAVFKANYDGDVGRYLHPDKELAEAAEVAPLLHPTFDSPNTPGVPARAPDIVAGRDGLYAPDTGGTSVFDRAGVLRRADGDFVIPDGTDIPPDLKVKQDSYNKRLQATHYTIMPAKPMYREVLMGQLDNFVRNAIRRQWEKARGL
Experiment: co-immunoprecipitation from P. aeruginosa lysate with anti-VSV-G agarose beads, Western blot for GSK-tagged Tse2

B1: Tsi2-V (type VI secretion immunity protein 2 fused to the vesicular stomatitis virus G epitope) (other)
chain: MNLKPQTLMVAIQCVAARTRELDAQLQNDDPQNAAELEQLLVGYDLAADDLKNAYEQALGQYSGLPPYDRLIEEPAS
binding result: binds
